Data reported in patent US20020082410.

Molecular target: Ipf1 (RSV-Ipf1 expression vector) (Mus musculus) (UniProt P52946)
Assay: cell_activity
Details: betaTC1 cells with RSV-Ipf1; in CHO cells Ipf1 raised activity to the betaTC1 level (about 3-fold over CHO)

For “5x P1 site linked to beta-globin TATA box reporter”, the activity was 2 fold.
